According to PMC7946963, “Phosphorylation regulates the binding of autophagy receptors to FIP200 Claw domain for selective autophagy initiation” (Nature Communications, 2021):
Square brackets hold non-standard residues; d marks the D form. Ends that are not written are not given here. * marks the point of attachment. FITC = O=C1OC2(c3ccc(O)cc3Oc3cc(O)ccc32)c2ccc(NC(=S)*)cc21; pS = N[C@@H](COP(=O)(O)O)C(=O)O

B1: CCPG1 FIR2 synthetic peptide (residues 99–113) (peptide)
peptide: TASDDSDIVTLEPPK
modifications: also: FITC on N-terminus in fluorescence polarisation assay only
notes: The results speak of a 13-residue peptide; also called un-phosphorylated CCPG1 FIR2; wild-type CCPG1 FIR2; source: synthetic peptide, bought: ChinaPeptides (>98% pure)
B2: nano-FIP200(1450–1594) (domain or fragment, human, UniProt Q8TDY2 1450-1594, looked up)
chain: HMLSEEKQRIMLLERTLQLKEEENKRLNQRLMSQSMSSVSSRHSEKIAIRDFQVGDLVLIILDERHDNYVLFTVSPTLYFLHSESLPALDLKPGEGASGASRRPWVLGKVMEKEYCQAKKAQNRFKVPLGTKFYRVKAVSWNKKV
notes: FIP200 (RB1CC1), human, residues 1450-1594; the construct of the analytical gel filtration with Optineurin fragments; also called FIP200 Claw domain; source: E. coli BL21 (DE3), purified (Ni-NTA, size-exclusion chromatography)
B3: Optineurin(169–185) S177E (phosphomimetic mutant) (domain or fragment, human, UniProt Q96CV9 169-185, looked up)
chain: NSSGSSEDEFVEIRMAE
notes: also called S177E mutant of Optineurin LIR; source: E. coli BL21 (DE3), purified (Ni-NTA, size-exclusion chromatography)
B4: Optineurin(169–185) S177E/F178W (domain or fragment, human, UniProt Q96CV9 169-185, looked up)
chain: NSSGSSEDEWVEIRMAE
notes: also called F178 of the S177E mutant of Optineurin LIR replaced by Trp; source: E. coli BL21 (DE3), purified (Ni-NTA, size-exclusion chromatography)
B5: Optineurin(169–185) S177E/F178Y (domain or fragment, human, UniProt Q96CV9 169-185, looked up)
chain: NSSGSSEDEYVEIRMAE
notes: also called F178 of the S177E mutant of Optineurin LIR replaced by Tyr; source: E. coli BL21 (DE3), purified (Ni-NTA, size-exclusion chromatography)
B6: S177-phosphorylated Optineurin LIR synthetic peptide (p-Optineurin LIR) (peptide)
peptide: SSED[pS]FVEIRMAE
modifications: also: N-terminal FITC in fluorescence polarisation assay only
notes: source: synthetic peptide, bought: ChinaPeptides (>98% pure)
B7: Optineurin LIR synthetic peptide (un-phosphorylated) (peptide)
peptide: {FITC}-SSEDSFVEIRMAE
notes: Optineurin, human, LIR region; also called un-phosphorylated Optineurin LIR peptide; source: synthetic peptide, bought: ChinaPeptides (>98% pure)
B8: FIP200 Claw domain (residues 1490–1594) (domain or fragment, human, UniProt Q8TDY2 1490-1594, looked up)
chain: SRHSEKIAIRDFQVGDLVLIILDERHDNYVLFTVSPTLYFLHSESLPALDLKPGEGASGASRRPWVLGKVMEKEYCQAKKAQNRFKVPLGTKFYRVKAVSWNKKV
notes: 15N-labelled in the NMR titrations; also called RB1CC1; source: E. coli BL21 (DE3), purified (Ni-NTA, size-exclusion chromatography); not shown: Trx (inferred from the cleaved 3C protease site), N-terminal, cleaved; His6, N-terminal, cleaved
B9: CCPG1 FIR2 S104E (phosphomimetic mutant, residues 99–113) (domain or fragment, human, UniProt Q9ULG6 99-113, looked up)
chain: TASDDEDIVTLEPPK
notes: CCPG1, human, FIR2, residues 99-113; also called phosphomimetic S104E mutant of CCPG1 FIR2; source: E. coli BL21 (DE3), purified (Ni-NTA, size-exclusion chromatography)

Assays:
GABARAP = target: T1, GABARAP (UniProt O95166 1-117); assay: fluorescence polarisation; FITC-labeled peptide (~0.25 μM) titrated with increasing amounts of protein; 20 mM Tris pH 7.9, 100 mM NaCl, 1 mM DTT, 25 °C; one-site binding model; details: both partners purified
T1 construct: GABARAP, one of the six mammalian ATG8 family proteins; construct not described; also called ATG8 family protein; mammalian ATG8 orthologue; source: bacteria (15N-labelled form grown in M9 minimal medium); construct not described
T1 sequence (O95166 whole entry): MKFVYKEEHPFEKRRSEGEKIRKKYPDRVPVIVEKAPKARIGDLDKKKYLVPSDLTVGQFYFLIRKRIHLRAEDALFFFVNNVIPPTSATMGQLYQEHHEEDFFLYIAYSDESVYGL

[1] = target: B8; assay: as above; details: both partners purified
[2] = target: T2, p-Optineurin(33–209), Optineurin(33–209) phosphorylated by TBK1 (human, UniProt Q96CV9 33-209, phosphoserine at 177 (the major site phosphorylated by TBK1, by mass spectrometry)); assay: SEC; analytical gel filtration of purified proteins and their mixtures; Superose 200 increase 10/300 GL; 20 mM Tris-HCl pH 7.9, 100 mM NaCl, 1 mM DTT; details: both partners purified
T2 construct: S177 is called the major site; other phosphorylated sites are not excluded; source: E. coli BL21 (DE3), purified; phosphorylated in vitro by purified Trx-TBK1(1–674) from Sf9 cells
T2 sequence (Q96CV9 33-209): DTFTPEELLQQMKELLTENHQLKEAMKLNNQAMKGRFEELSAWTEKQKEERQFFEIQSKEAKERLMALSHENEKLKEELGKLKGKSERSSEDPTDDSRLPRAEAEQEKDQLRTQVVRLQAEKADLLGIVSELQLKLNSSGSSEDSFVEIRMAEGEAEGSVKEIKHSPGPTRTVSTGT

nano-FIP200(1450–1594) = target: B2; assay: as above; details: both partners purified
[3] = target: the molecule itself; assay: AUC; sedimentation velocity, 142,250 x g, 20 °C; FIP200(1490–1594) alone, CCPG1 FIR2 S104E alone, and FIP200(1490–1594) mixed with excess CCPG1 FIR2 S104E
[4] = target: B8; assay: as above; details: both partners purified

B1 was tested, and the Kd (GABARAP) was roughly 27 µM and the binding result [1] was “binds”.

B2: binds [2].

B3: binds (nano-FIP200(1450–1594)).

B4: binds (nano-FIP200(1450–1594)).

B5: binds (nano-FIP200(1450–1594)).

B6 gave a Kd [1] of roughly 12 µM.

Binder B7 has a Kd [1] of roughly 307 µM.

In the case of B8, the “stoichiometry N” value [3] is reported as 2.

For B9, the “stoichiometry N” value [4] was 1 CCPG1 FIR2 S104E per FIP200 chain (2:2).
